Measurements reported in US20230125550A1 (ARCELLX, published 2023).
Positions count from the first letter of the chain named.

B1: SEQ ID NO 948 (designed binder)
chain: MGSWWEFNVRLQAIKYRLSALGGSEAELAAFEKEIAAFESELQAYKGKGNPEVEDLRKTAAHIRWQLQAYRHN
B2: SEQ ID NO 950 (designed binder)
chain: B1 chain with V9M, Q12S, S19Y, D55I, K58R, T59L, H62D, W65E, Q66R
B3: SEQ ID NO 945 (designed binder)
chain: MGSWWEFRVRLEAIDYRLKALGGSEAELAAFEKEIAAFESELQAYKGKGNPEVEYLRMKAATIRAILQAYRHN
B4: SEQ ID NO 946 (designed binder)
chain: B1 chain with W5Y, N8D, V9I, Q12E, D55Y, T59K, H62V, W65S, Q66M
B5: SEQ ID NO 947 (designed binder)
chain: B3 chain with V9I, D15W, K19H, Y55D, M58I, K59F, T62N, A65S, I66K
B6: SEQ ID NO 949 (designed binder)
chain: B1 chain with Q12S, K15R, S19L, K58A, T59S, H62Q, W65A, Q66M

Target: HER2 (Homo sapiens (Human), UniProt P04626 23-652)
Assay: phage ELISA, A450 target/A450 IgG1-Fc
Outline: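 Using VCSM13 helper phage, phage were rescued in 96-well format from single phagemid colonies taken from panning output. Wells were coated with 1.3 microg/ml goat anti-human IgG1-Fc antibody and captured 5 nM recombinant human target or IgG1-Fc before 50 microl of 5×-diluted phage were added, with binding read at 450 nm via HRP-conjugated anti-M13 antibody. Each clone's ELISA ratio is its target-to-IgG1-Fc absorbance, averaged across all screened wells with that clone.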

ELISA_avg [ratio]	Binder
5.23	B1
3.08	B2
6.82	B3
5.35	B4
8.04	B5
6.73	B6
